Laboratory results taken from the Human Domainome abundance scans (Beltran et al. 2025).

B1: Membrane-associated guanylate kinase, WW and PDZ domain-containing protein 2, residues 601 to 682; numbered along this chain, Q86UL8 (parent)
chain: AELMTLTIVKGAQGFGFTIADSPTGQRVKQILDIQGCPGLCEGDLIVEINQQNVQNLSHTEVVDILKDCPIGSETSLIIHRG

Variants of: B1
Assay: abundance fitness (aPCA) (normalised: wild type 0, dead -1); higher = more abundant; growth selection in yeast, the domain comes from the species named
Conditions: Homo sapiens

Abundance fitness, by site and new letter:
V63: K -0.095; G -0.067; F -0.432; M 0.041; D 0.145; A 0.001; E -0.028; H -0.493; C -0.192; L -0.278
L57: H -0.008; C -0.046; M -0.283; G -0.152; K -0.108; V -0.029; E -0.038; S 0.028; W -0.13; D -0.109; Q -0.081; T -0.128; N 0.076
Q52: K 0.049; S -0.037; A -0.037; W -0.095; M 0.01; D 0.027; F -0.054; T -0.018; R -0.007; C -0.052; Y -0.024; I 0.038; N 0.017; H -0.029; L -0.072; V -0.039; E -0.016
G39: V -0.392; W -0.211; S -0.035; T -0.017
N56: K -0.046; S -0.053; Y 0.074; W 0.197; Q -0.099; P 0.072; E 0.221; V -0.128; M -0.06; T -0.03; C -0.326; G 0.003; R -0.036; L -0.051; F -0.099; A -0.076
Q51: H -0.016; V -0.088; A -0.012; L -0.064; I -0.269; C -0.067; K -0.024; F -0.063; E -0.013; T 0.005; P -0.749; D -0.024; S -0.018; N 0.045; W -0.09; M -0.042
I46: M 0.164; L 0.236; T -0.587; V -0.079
T60: V 0.004; L -0.011; S -0.032; A 0.146; M 0.012; K -0.003; E -0.051; D -0.136; R -0.038; N 0.054; W -0.075; Y -0.165; C 0.17; P -0.198
N53: A -0.097; E -0.043; H -0.045; L -0.069; M -0.043; P -0.001; Q -0.025; W -0.201; G -0.051; F -0.095; R -0.061; T -0.042; D -0.025; Y -0.064; I -0.076; K -0.021; S -0.022
E42: F -0.123; P 0.061; R -0.1; M 0.036; G -0.114; D -0.152; H -0.23; V -0.062; L -0.028; W -0.171; C -0.123; S -0.049; I -0.087; T -0.015; K -0.016; N -0.087
V62: L -0.114; A -0.079; M -0.181; W -1.03; D -0.985; H -0.598; R -0.91; C 0.181; G -1.07; F -0.345; Q -0.336; T -0.03; E -0.999
Q55: C -0.111; E -0.029; V -0.027; K -0.276; G 0.073; F 0.043; N 0.039; R 0.004; I -0.02; W -0.133; M -0.01; S -0.172; A -0.069; L -0.106; D -0.111
N50: L -0.219; D -0.084; V -0.626; R -0.068; F -0.71; W -0.433; M -0.108; C -0.71; G -0.058; S -0.03; K -0.011; E 0.013; Y -0.386; H 0.024; T -0.455
L45: A -0.088; R -0.244; S 0.256; M 0.089; G -0.096; W -0.161; V -0.232
G43: K 0.199; S -0.104; A -0.086; E 0.059; M -0.261; F -0.275; L 0; V -0.761; D 0.023; C -0.187; W -0.206; R -0.182; Q 0.068; H 0.004; T -0.121
S58: N -0.007; K -0.236; T -0.135; P -0.174; F -0.29; C 0.052; W -0.021; V -0.093; G 0.015; D -0.183; Q -0.057; R -0.119; E -0.065; Y -0.226
E61: K -0.137; S -0.2; I -0.409; F -0.381; C -0.039; M 0.08; W -0.374; V -0.132; D -0.005; R 0.002; L -0.046; G -0.036; T -0.289; A -0.151; H -0.051
L40: T -0.498; F 0.047; A -0.108; S -0.616; P -0.232; M -0.254; V -0.061; G -0.752
I49: T -0.371; G -1.08; V 0.072; S -0.97; H -0.964; Y -0.14; R -0.875; L 0.011; M -0.195; W -0.241; F -0.065; P -1.01; A -0.173; C -0.094
E48: C -0.145; T -0.226; W -0.158; A -0.193; M -0.144; L -0.114; I -0.871; H 0.091; K -0.117; D -0.444; Q -0.098; S -0.004; Y 0.006; V -0.086; R -0.103
D44: H -0.79; A -0.263; C -0.989; M -0.572; Y -0.71; Q -0.567; G -0.859; E -0.874; S -0.618; T -0.95; L -1.27; N -0.21
C41: L -0.005; P -1.02; T 0.046; K -0.036; M -0.04; F 0.016; N -0.012; E 0.01; R -0.022; H 0.144; Q -0.001; A 0.042; W -0.058; G -0.046; D 0.036; I 0.057; S 0.027
H59: A -0.088; Y -0.109; I -0.142; R -0.009; K -0.132; W -0.074; G -0.018; D -0.176; E 0.126; S -0.038; M 0.065; T -0.132; N -0.009; P -0.094; Q -0.014; L -0.01
V47: R -0.018; W -0.09; D -0.161; C -0.066; A 0.036; I -0.165; N -0.291; Q 0.033; K -0.195; F 0.185; Y -0.337; S -0.09; G -0.164; E 0.004
V54: S -0.243; A -0.053; R -0.939; I -0.07; K -0.855; G -0.523; Q -0.688; C -0.086; P -0.806; H -1.18; F -0.867; Y -1; T -0.037; W -0.779; L -0.089; E -0.906; D -0.964
